T1: ECD of human DLL3 over-expressed on HEK293 cells (human, UniProt Q9NYJ7 27-492)
T1 construct: extracellular domain; also called HEK293-hDLL3; human DLL3 expressed on HEK293 cells
T1 sequence (looked up): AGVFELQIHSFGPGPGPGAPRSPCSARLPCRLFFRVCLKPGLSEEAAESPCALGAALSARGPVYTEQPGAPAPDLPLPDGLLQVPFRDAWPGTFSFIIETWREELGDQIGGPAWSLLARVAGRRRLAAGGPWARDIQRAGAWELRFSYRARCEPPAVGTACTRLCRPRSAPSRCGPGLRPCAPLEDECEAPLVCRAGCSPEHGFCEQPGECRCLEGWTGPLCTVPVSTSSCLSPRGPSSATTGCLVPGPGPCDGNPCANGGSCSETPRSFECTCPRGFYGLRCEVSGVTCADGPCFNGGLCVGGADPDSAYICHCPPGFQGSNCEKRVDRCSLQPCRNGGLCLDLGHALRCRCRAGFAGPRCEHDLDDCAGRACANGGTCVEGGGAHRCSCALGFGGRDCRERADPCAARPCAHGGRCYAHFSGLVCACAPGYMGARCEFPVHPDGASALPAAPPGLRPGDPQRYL

T2: human DLL3 endogenously expressed on SCLC tumor cell lines SHP77 and NCI-H82 (human, UniProt Q9NYJ7 27-618)
T2 construct: whole, on cells; also called human DLL3 expressed on tumor cells
T2 sequence (looked up): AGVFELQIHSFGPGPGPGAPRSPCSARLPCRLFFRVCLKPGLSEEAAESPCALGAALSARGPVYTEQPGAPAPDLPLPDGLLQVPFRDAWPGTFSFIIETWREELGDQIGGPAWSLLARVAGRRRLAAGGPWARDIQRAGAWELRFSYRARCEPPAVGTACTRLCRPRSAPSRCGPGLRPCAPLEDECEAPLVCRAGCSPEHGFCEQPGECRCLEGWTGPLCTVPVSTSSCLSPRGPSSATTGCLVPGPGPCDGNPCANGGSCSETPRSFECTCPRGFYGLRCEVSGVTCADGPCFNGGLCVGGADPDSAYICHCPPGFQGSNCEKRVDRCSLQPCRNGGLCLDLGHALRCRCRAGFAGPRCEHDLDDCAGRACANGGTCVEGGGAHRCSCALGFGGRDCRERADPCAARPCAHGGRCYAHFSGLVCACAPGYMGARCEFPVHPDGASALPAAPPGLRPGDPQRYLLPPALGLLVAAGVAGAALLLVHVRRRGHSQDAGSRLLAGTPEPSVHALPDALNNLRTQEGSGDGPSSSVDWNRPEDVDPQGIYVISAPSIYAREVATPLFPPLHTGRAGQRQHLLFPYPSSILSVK

T3: ECD of human DLL3 protein fused with his tag (Acro Bio, Cat. No. DL3-H52H4) (human, UniProt Q9NYJ7 27-492)
T3 construct: range 27-492; Bought protein; also called hDLL3-his; human DLL3-his protein; not shown: his tag
T3 sequence (looked up): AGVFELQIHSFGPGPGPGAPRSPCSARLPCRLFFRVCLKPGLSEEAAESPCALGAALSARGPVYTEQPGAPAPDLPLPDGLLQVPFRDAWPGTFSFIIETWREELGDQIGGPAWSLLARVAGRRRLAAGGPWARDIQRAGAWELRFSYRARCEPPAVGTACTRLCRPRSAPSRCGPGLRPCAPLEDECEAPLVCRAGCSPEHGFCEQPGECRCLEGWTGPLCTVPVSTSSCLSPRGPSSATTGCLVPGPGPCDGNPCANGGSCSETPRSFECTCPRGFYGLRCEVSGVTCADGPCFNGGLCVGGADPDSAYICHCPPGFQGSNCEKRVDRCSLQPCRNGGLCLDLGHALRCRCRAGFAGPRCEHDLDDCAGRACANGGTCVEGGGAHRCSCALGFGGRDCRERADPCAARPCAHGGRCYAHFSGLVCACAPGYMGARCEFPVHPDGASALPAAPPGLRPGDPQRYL


Key:
[1] = molecular target: T1, ECD of human DLL3 over-expressed on …; assay: flow cytometry on HEK293-hDLL3 cells
[2] = molecular target: T2, human DLL3 endogenously expressed on …; assay: flow cytometry on SHP77 cells
[3] = molecular target: T3, ECD of human DLL3 protein fused with …; assay: ELISA, hDLL3-his coated

| Binder | binding result [1] | binding result [2] | binding result [3] |
| --- | --- | --- | --- |
| 310P3C5-z15p10 PTM removed humanized antibody (antibody, V domains shown, variable regions fused to the constant region of human IgG1) VH: QVQLVQSGAEVKKPGASVKVSCKASGYTFTDFYMNWVKQAPGQGLEWIGDANPNAGGTTHNPRFKGRATLTVDKSASTAYMELRSLRSEDTAVYYCARGGLPGDFDYWGQGTTVTVSS VL: DIQMTQSPSSLSASVGDRVTITCKASEDIYNRLAWYQQKPGKAPKLLISGVTSLETGVPSRFSGSGSGTDFTFTISSLQPEDIATYYCQQYWSFPWTFGGGTKVEIK | binds | binds |  |
| 310P3C5-z15p19 PTM removed humanized antibody (antibody, V domains shown, variable regions fused to the constant region of human IgG1) VH: QVQLVQSGAEVKKPGASVKVSCKASGYTFTDFYMNWVKQAPGQGLEWIGDANPNVGGTTHNPRFKGRATLTVDKSASTAYMELRSLRSEDTAVYYCARGGLPGDFDYWGQGTTVTVSS VL: DIQMTQSPSSLSASVGDRVTITCKASEDIYNRLAWYQQKPGKAPKLLISGVTSLETGVPSRFSGSGSGTDFTFTISSLQPEDIATYYCQQYWSFPWTFGGGTKVEIK | binds | binds |  |
| 310P3C5-z11 humanized antibody (antibody, human IgG1, kappa, V domains shown, HU-VH1-3 with HU-VL1-3; human IgG1) VH: QVQLVQSGAEVKKPGASVKVSCKASGYTFTDFYMNWVRQAPGQGLEWIGDANPNNGGTTHNPRFKGRATLTVDTSTSTAYMELRSLRSDDTAVYYCARGGLPGDFDYWGQGTTVTVSS VL: DIQMTQSPSSVSASVGDRVTITCKASEDIYNRLAWYQQKPGKAPKLLISGVTSLETGVPSRFSGSGSGKDFTLTISSLQPEDFATYYCQQYWSFPWTFGGGTKVEIKR |  |  | binds |
| 310P3C5-z15p12 PTM removed humanized antibody (antibody, V domains shown, variable regions fused to the constant region of human IgG1) VH: QVQLVQSGAEVKKPGASVKVSCKASGYTFTDFYMNWVKQAPGQGLEWIGDANPNFGGTTHNPRFKGRATLTVDKSASTAYMELRSLRSEDTAVYYCARGGLPGDFDYWGQGTTVTVSS VL: DIQMTQSPSSLSASVGDRVTITCKASEDIYNRLAWYQQKPGKAPKLLISGVTSLETGVPSRFSGSGSGTDFTFTISSLQPEDIATYYCQQYWSFPWTFGGGTKVEIK | binds | binds |  |
| 310P3C5-z15p18 PTM removed humanized antibody (antibody, V domains shown, variable regions fused to the constant region of human IgG1) VH: QVQLVQSGAEVKKPGASVKVSCKASGYTFTDFYMNWVKQAPGQGLEWIGDANPNRGGTTHNPRFKGRATLTVDKSASTAYMELRSLRSEDTAVYYCARGGLPGDFDYWGQGTTVTVSS VL: DIQMTQSPSSLSASVGDRVTITCKASEDIYNRLAWYQQKPGKAPKLLISGVTSLETGVPSRFSGSGSGTDFTFTISSLQPEDIATYYCQQYWSFPWTFGGGTKVEIK | binds | binds |  |
| 310P3C5-z15p20 PTM removed humanized antibody (antibody, V domains shown, variable regions fused to the constant region of human IgG1) VH: QVQLVQSGAEVKKPGASVKVSCKASGYTFTDFYMNWVKQAPGQGLEWIGDANPNWGGTTHNPRFKGRATLTVDKSASTAYMELRSLRSEDTAVYYCARGGLPGDFDYWGQGTTVTVSS VL: DIQMTQSPSSLSASVGDRVTITCKASEDIYNRLAWYQQKPGKAPKLLISGVTSLETGVPSRFSGSGSGTDFTFTISSLQPEDIATYYCQQYWSFPWTFGGGTKVEIK | binds | binds |  |
| 310P3C5-z15p13 PTM removed humanized antibody (antibody, V domains shown, variable regions fused to the constant region of human IgG1) VH: QVQLVQSGAEVKKPGASVKVSCKASGYTFTDFYMNWVKQAPGQGLEWIGDANPNHGGTTHNPRFKGRATLTVDKSASTAYMELRSLRSEDTAVYYCARGGLPGDFDYWGQGTTVTVSS VL: DIQMTQSPSSLSASVGDRVTITCKASEDIYNRLAWYQQKPGKAPKLLISGVTSLETGVPSRFSGSGSGTDFTFTISSLQPEDIATYYCQQYWSFPWTFGGGTKVEIK | binds | binds |  |
| 310P3C5-z13 humanized antibody (antibody, human IgG1, kappa, V domains shown, HU-VH1-1 with HU-VL2; human IgG1) VH: QVQLVQSGAEVKKPGASVKVSCKASGYTFTDFYMNWVRQAPGQGLEWMGDANPNNGGTTHNPRFKGRVTMTTDTSTSTAYMELRSLRSDDTAVYYCARGGLPGDFDYWGQGTTVTVSS VL: DIQMTQSPSSLSASVGDRVTITCKASEDIYNRLAWYQQKPGKAPKLLISGVTSLETGVPSRFSGSGSGTDFTFTISSLQPEDIATYYCQQYWSFPWTFGGGTKVEIKR |  |  | binds |

From patent publication EP4803151A2 (Lepu Biopharma Co., Ltd., dated 2026)
